This is an account of results in article PMC10513939, “Phylogenetic and functional analysis of cyanobacterial Cytochrome c 6-like proteins” (Frontiers in Plant Science, 2023).

Test [1] has as its target T1, Cytochrome f (soluble form, subunit of the cytochrome b 6 f complex) (Nostoc sp. PCC 7119, UniProt Q93SW9 45-298, heme group; reduced for ITC).
T1 chain: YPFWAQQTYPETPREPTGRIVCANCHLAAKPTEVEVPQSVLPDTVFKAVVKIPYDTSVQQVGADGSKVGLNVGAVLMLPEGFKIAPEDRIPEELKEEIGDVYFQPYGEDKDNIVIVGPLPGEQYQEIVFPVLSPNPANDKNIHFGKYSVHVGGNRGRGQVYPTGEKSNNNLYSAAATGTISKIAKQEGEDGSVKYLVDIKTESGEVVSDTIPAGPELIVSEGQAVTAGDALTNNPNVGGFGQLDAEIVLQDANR
The test can be described thus: ITC. In general terms: In ITC the heat of successive injections is recorded.

Test [2] concerns the target T1, Cytochrome f (soluble form, subunit of …). The test can be described thus: ITC.
In test [3] the target is T2, Cytochrome f (soluble form, subunit of the cytochrome b 6 f complex) (Nostoc sp. PCC 7119, UniProt Q93SW9 45-298, heme group; reduced for ITC).
T2 construct: Cytochrome f, subunit of the cytochrome b6f complex, soluble form heterologously expressed; construct as described in earlier work (Albarran et al., 2005); PCC 7120; Soluble form: as far as I recall, the lumenal domain without the C-terminal membrane anchor and without the signal peptide; also called Cyt f; soluble Cyt f; source: E. coli co-transformed with pEC86, extracted from the periplasmic …
T2 sequence (looked up): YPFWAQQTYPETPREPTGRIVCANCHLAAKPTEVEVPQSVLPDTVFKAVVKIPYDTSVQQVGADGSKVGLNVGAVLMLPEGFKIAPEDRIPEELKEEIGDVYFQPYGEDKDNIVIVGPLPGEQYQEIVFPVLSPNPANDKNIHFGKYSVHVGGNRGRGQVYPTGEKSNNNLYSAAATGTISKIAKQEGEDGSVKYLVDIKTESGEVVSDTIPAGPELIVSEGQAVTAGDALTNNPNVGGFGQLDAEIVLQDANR
Nature of the test: ITC; oxidised Cyt c 6, c 6BC or c 6D (400 uM) injected (2 uL injections) into reduced Cyt f (40 uM) in the cell; 5 mM phosphate buffer pH 7.5, 0.02% (w/v) Triton X-100, 25 °C; single binding site model. Particulars: both partners purified.

Test [4] deals with Cytochrome f (soluble form, subunit of the cytochrome b 6 f complex) (Nostoc sp. PCC 7119) (UniProt Q93SW9). The description is as above.

B1: Cytochrome c 6 (natural protein, Nostoc sp. PCC 7119, UniProt P0A3X8 26-111, looked up)
chain: ADSVNGAKIFSANCASCHAGGKNLVQAQKTLKKADLEKYGMYSAEAIIAQVTNGKNAMPAFKGRLKPEQIEDVAAYVLGKADADWK
modifications: heme group; oxidised for ITC
notes: Cytochrome c6 (petJ) of Nostoc sp; PCC 7119; also called Cyt c 6; source: E. coli co-transformed with pEC86, extracted from the periplasmic fraction, purified (ion exchange chromatography)
In the case of B1, binding in test [1] was put at a Kd of 13 µM. In addition, the Ka in test [2] turned out to be 78000 M⁻¹. Also, the “stoichiometry N” value in test [3] was determined as 1.

B2: Cytochrome c 6D (natural protein)
chain: AELPTGAKIFNNNCASCHIGGGNILISEKTLKKEALLKYLEDYETNSIQAIIHQIQYGKNAMPAFKDKLSTEEILEVAAYIFQKAEKDWSNLEKEG
modifications: heme group; oxidised for ITC
B2 had a Kd in test [1] of 2 µM. This molecule gave a Ka in test [2] of 500000 M⁻¹. In test [4], this molecule yielded a fold higher KA and fold lower KD than for Cyt c 6 and Cyt c 6BC with Cyt f of 6 fold; a stoichiometry N of 1.

B3: Cytochrome c 6BC (natural protein)
chain: ENTINGEQIFSVHCAGCHINGSNIIRRGKNLQKKTLKKYGMDSLEAIEAIVTNGKNNMSAYKDRLSEQEIQDVAAYVLEQAEKGWR
modifications: heme group; oxidised for ITC
Consider B3, for which binding in test [1] was put at a Kd of 11 µM. Also, in test [2], the Ka was determined as 89000 M⁻¹. For the same molecule, the stoichiometry N in test [4] came to 1.

A word on the Kd: it is a measure of binding affinity in units of concentration. Low values mean tighter binding, high ones weaker binding. In general, stoichiometry N refers to the number of molecules, sites or subunits per partner or assembly.
